Measured values published in PMC4558169, “Anchoring of both PKA-RIIα and 14-3-3θ regulates retinoic acid induced 16 mediated phosphorylation of heat shock protein 70” (Oncotarget, 2015).

B1: endogenous 14-3-3θ (natural protein, human (endogenous in HEK293T), UniProt P27348 1-245, looked up)
chain: MEKTELIQKAKLAEQAERYDDMATCMKAVTEQGAELSNEERNLLSVAYKNVVGGRRSAWRVISSIEQKTDTSDKKLQLIKDYREKVESELRSICTTVLELLDKYLIANATNPESKVFYLKMKGDYFRYLAEVACGDDRKQTIDNSQGAYQEAFDISKKEMQPTHPIRLGLALNFSVFYYEILNNPELACTLAKTAFDEAIAELDTLNEDSYKDSTLIMQLLRDNLTLWTSDSAGEECDAAEGAEN
notes: 14-3-3 protein theta, endogenous in HEK293T cells; source: endogenous, HEK293T lysate

Assays:
14-3-3θ = 14-3-3θ (UniProt P27348); assay: anti-Flag co-IP, 14-3-3θ blot; conditions: reference: wild type; sites S325
[1] = target: T1, Flag-tagged retinoic acid induced 16 (RAI16), full length (UniProt Q86V87 1-743); assay: co-IP; Flag-tagged RAI16 or its mutants expressed in HEK293T cells, alone or with Ha-tagged PKA-RIIα; anti-Flag immunoprecipitation, endogenous 14-3-3θ detected with anti-14-3-3θ antibody; cells untreated, treated with forskolin or with forskolin + PKImyr; conditions: partners not purified
T1 construct: 743 residues by the printed fragment limits; also called Flag-RAI16; Fam160B2; source: HEK293T, transfected (pcDNA3.1), in lysate
T1 sequence (Q86V87 whole entry, the tested form may be a part): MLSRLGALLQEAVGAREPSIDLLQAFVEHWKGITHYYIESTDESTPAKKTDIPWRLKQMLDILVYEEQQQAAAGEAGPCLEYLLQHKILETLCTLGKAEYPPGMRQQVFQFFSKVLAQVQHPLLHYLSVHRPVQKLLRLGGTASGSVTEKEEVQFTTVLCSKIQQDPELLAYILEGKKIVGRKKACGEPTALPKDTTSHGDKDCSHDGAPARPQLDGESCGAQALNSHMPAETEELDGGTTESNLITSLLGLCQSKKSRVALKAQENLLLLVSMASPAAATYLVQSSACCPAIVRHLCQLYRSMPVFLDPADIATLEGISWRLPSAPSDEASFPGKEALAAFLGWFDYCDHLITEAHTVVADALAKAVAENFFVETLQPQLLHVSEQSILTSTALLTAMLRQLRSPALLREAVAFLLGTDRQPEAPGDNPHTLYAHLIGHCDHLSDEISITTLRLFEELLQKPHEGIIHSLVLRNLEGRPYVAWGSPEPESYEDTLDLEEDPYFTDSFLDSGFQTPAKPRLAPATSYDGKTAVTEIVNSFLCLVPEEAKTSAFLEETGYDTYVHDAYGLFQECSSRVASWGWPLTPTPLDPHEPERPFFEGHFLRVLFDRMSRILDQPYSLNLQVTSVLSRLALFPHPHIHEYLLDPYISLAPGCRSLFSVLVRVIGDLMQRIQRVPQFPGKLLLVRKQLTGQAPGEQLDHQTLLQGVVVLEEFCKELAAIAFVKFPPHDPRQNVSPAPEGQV

Molecule | binding against the reference (14-3-3θ) | fold change of co-precipitated 14-3-3θ with forskolin against untreated cells [1] [fold]
RAI16 (retinoic acid induced 16) (from UniProt Q86V87) S325A | lost | –
B1 | – | 3.25
